{"source": "paper PMC2834670", "biological_target": "T1, MleR (Streptococcus mutans UA159?) (UniProt Q8DWC9)", "T1 sequence": "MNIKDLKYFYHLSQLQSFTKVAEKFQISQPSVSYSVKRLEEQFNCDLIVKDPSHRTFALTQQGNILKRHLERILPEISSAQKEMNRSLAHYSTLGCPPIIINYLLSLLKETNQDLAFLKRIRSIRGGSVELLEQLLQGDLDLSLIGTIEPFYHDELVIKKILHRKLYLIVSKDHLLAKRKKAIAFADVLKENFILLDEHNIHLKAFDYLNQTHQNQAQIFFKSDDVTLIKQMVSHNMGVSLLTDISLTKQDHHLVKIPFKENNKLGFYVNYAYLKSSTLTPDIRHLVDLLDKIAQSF", "experiment": "EMSA", "details": "20 mM Tris pH 7.5, 100 mM KCl, 2 mM EDTA, 10% glycerol, ~100 ng MleR, equal amount of competitor DNA (EP10/11 at 75 ng/ul), 20 min ambient temperature; 4.5% …", "data": [{"sequence": "GGTATCTTTGCGGCTATGGATATCACAGGTGAAAAATTGACTGATCAAGTCTATCTCTGTTACGGTGGCGGTACAGCAGGTGCGGGTATTGCCTCTCGTGTCTTGCGTGAAA (double strand) [internal mleS fragment (137qF/R)]", "values": [{"measurement": "binding", "value": "no binding"}]}]}
